The supplement of paper PMC12783771
± gives the standard deviation of the averaged measurements.

B1: library; numbered along this chain (parent)
chain: MNIQIGELAKRTACPVVTIRFYEQEGLLPPPGRSRGNFRLYGEEHVERLQFIRHCRSLDMPLSDVRTLLSYRKRPDQDCGEVNMLLDEHIRQVESRIGALLELKHHLVELREACSGARPAQSCGILQGLSDCVCDTRGTTAHPSD

Tests used:
[1] = variants of: B1; assay: sfGFP reporter fluorescence (15 h) (µM FITC); higher = higher leak; conditions: library round: Round 0; ligand: none
Method in brief: (§1)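 With 1 µM lead chloride, 30 µM zinc acetate or no metal present, 1 μL Echo-assembled reactions were incubated 15 hr at 30 °C. They contained BL21 Star (DE3) PANOx-SP extract, 30 μg/mL GamS, the pPbrR-sfGFP reporter plasmid and PCR-made linear PbrR templates Echo-normalized to 5 nM. Endpoint sfGFP fluorescence was read on a Synergy Neo2 at 485/528 nm against FITC standards in 50 mM sodium borate pH 8.5. Results are expressed as µM FITC.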

[2] = variants of: B1; assay: sfGFP reporter fluorescence (15 h) (µM FITC); higher = stronger transcriptional activation; conditions: library round: Round 0
Method in brief: as §1

Variant | sfGFP reporter fluorescence [1] | sfGFP reporter fluorescence ([2]; ligand: 1 µM Pb) | sfGFP reporter fluorescence ([2]; ligand: 30 µM Zn)
Y41L | 0.0597 | 0.0596 ± 0.0029 | 0.0729 ± 0.0083
Y41N | 0.0594 ± 0.0031 | 0.0601 | 0.0597 ± 0.0015
G128D | 0.0603 ± 0.0023 | 0.0607 ± 0.00078 | 0.108 ± 0.0029
G128H | 0.0608 ± 0.0021 | 0.0848 ± 0.0034 | 0.25 ± 0.012
N83M | 0.06102 ± 0.00026 | 0.0768 ± 0.0023 | 0.06194 ± 0.00052
C55G | 0.0568 ± 0.0015 | 0.057 ± 0.00078 | 0.07 ± 0.0015
L68M | 0.0902 ± 0.0021 | 0.2142 ± 0.0013 | 1.42 ± 0.044
M60A | 0.0643 ± 0.0029 | 0.0619 ± 0.001 | 0.0713 ± 0.007
M60C | 0.06029 ± 0.00026 | 0.06304 ± 0.00052 | 0.06615 ± 0.00026
R39T | 0.0616 ± 0.001 | 0.0608 | 0.06029 ± 0.00026
D135H | 0.0665 ± 0.0018 | 0.107 ± 0.0042 | 2.14 ± 0.068
D135T | 0.0608 | 0.088 ± 0.001 | 1.13 ± 0.12
M60L P61N K104V G128M | 0.547 ± 0.013 | 1.69 ± 0.41 | 3.84 ± 0.1
H106A | 0.0596 ± 0.0034 | 0.0667 ± 0.00052 | 0.213 ± 0.02
H89V | 0.0592 ± 0.0034 | 0.0575 ± 0.0021 | 0.05681 ± 0.00052
H89C | 0.0553 ± 0.0015 | 0.0574 ± 0.0039 | 0.0614 ± 0.0034
E94Q | 0.0632 ± 0.0013 | 0.0856 ± 0.008 | 1.02 ± 0.07
E94T | 0.0673 ± 0.0029 | 0.108 ± 0.03 | 1.27 ± 0.29
E94C | 0.0645 ± 0.0021 | 0.115 ± 0.011 | 0.946 ± 0.18
C134T | 0.06542 ± 0.00026 | 0.0823 ± 0.0049 | 1.21 ± 0.096
V108Y | 0.0608 ± 0.0015 | 0.108 ± 0.0021 | 1.18 ± 0.067
V108K | 0.0607 ± 0.00078 | 0.0803 ± 0.0026 | 1.13 ± 0.093
V108N | 0.0574 ± 0.0013 | 0.06414 ± 0.00052 | 0.611 ± 0.073

Variant | sfGFP reporter fluorescence [1] | sfGFP reporter fluorescence ([2]; ligand: 1 µM Pb) | sfGFP reporter fluorescence ([2]; ligand: 30 µM Zn)
P61N K104V | 0.121 ± 0.016 | 0.385 ± 0.007 | 1.77 ± 0.47
L58N | 0.05644 ± 0.00052 | 0.05791 ± 0.00052 | 0.0548 ± 0.0023
L27V | 0.0625 ± 0.00078 | 0.0717 ± 0.00078 | 0.349 ± 0.0044
I125E | 0.0597 ± 0.0026 | 0.0581 ± 0.00078 | 0.0557 ± 0.0031
I125H | 0.0601 ± 0.0031 | 0.06011 ± 0.00052 | 0.057 ± 0.0023
L126C | 0.059 ± 0.0036 | 0.0572 ± 0.001 | 0.0563 ± 0.0029
L126I | 0.0542 ± 0.001 | 0.0568 ± 0.0015 | 0.238 ± 0.012
G36T | 0.06469 ± 0.00026 | 0.08943 ± 0.00052 | 0.866 ± 0.074
L62I | 0.05992 ± 0.00026 | 0.0883 ± 0.0062 | 0.88 ± 0.14
L28R | 0.0629 ± 0.0013 | 0.063 ± 0.0026 | 0.0588 ± 0.0029
D131R | 0.0733 ± 0.00052 | 0.17 ± 0.022 | 1.65 ± 0.29
E7P | 0.061 ± 0.0013 | 0.0709 ± 0.00078 | 0.3319 ± 0.0018
C114F | 0.0572 ± 0.0015 | 0.0577 ± 0.00078 | 0.053 ± 0.0013
V133A | 0.06341 ± 0.00052 | 0.0746 ± 0.007 | 0.769 ± 0.021
C79V | 0.0572 ± 0.0015 | 0.0586 | 0.05552 ± 0.00026
C79K | 0.06011 ± 0.00052 | 0.0614 ± 0.00078 | 0.0548 ± 0.00078
C79F | 0.055 ± 0.0026 | 0.0574 ± 0.0013 | 0.0546 ± 0.0015
V82L | 0.0574 ± 0.0034 | 0.0583 ± 0.001 | 0.0724 ± 0.0044
G6A | 0.0504 ± 0.0018 | 0.0491 ± 0.00052 | 0.09016 ± 0.00052
G6F | 0.0592 ± 0.0018 | 0.06029 ± 0.00026 | 0.0629 ± 0.00078
E112A | 0.063 ± 0.0021 | 0.0929 ± 0.0039 | 1.31 ± 0.092
E112Q | 0.0627 ± 0.0015 | 0.0909 ± 0.0078 | 1.27 ± 0.082
E112V | 0.0572 ± 0.0015 | 0.06597 ± 0.00052 | 0.343 ± 0.0078

Variant | sfGFP reporter fluorescence [1] | sfGFP reporter fluorescence ([2]; ligand: 1 µM Pb) | sfGFP reporter fluorescence ([2]; ligand: 30 µM Zn)
M60L G128I | 0.336 ± 0.012 | 1.4 ± 0.016 | 3.625 ± 0.027
L107G | 0.05956 ± 0.00026 | 0.0836 ± 0.0036 | 0.4444 ± 0.0044
I90D | 0.0568 ± 0.0047 | 0.0561 ± 0.0015 | 0.085 ± 0.0057
I90V | 0.059 ± 0.0036 | 0.064 ± 0.00078 | 0.583 ± 0.015
I90E | 0.0579 ± 0.0042 | 0.05791 ± 0.00052 | 0.0977 ± 0.0018
I90N | 0.05717 ± 0.00052 | 0.0601 ± 0.0036 | 0.279 ± 0.012
I90A | 0.06249 ± 0.00026 | 0.0792 ± 0.0031 | 0.521 ± 0.0044
I90M | 0.0588 ± 0.0018 | 0.0625 ± 0.0018 | 0.384 ± 0.013
I90F | 0.0566 ± 0.0054 | 0.063 ± 0.0026 | 0.339 ± 0.033
I90S | 0.0601 ± 0.0031 | 0.0671 ± 0.0036 | 0.384 ± 0.0091
D64K K104V G128I | 0.711 ± 0.092 | 1.75 ± 0.096 | 4.36 ± 0.25
K104Q | 0.0601 ± 0.0026 | 0.0832 ± 0.015 | 0.901 ± 0.022
K104A | 0.05974 ± 0.00052 | 0.0759 ± 0.0021 | 0.591 ± 0.037
S34A | 0.0645 ± 0.001 | 0.0654 ± 0.00078 | 0.328 ± 0.018
S115A | 0.0599 ± 0.00078 | 0.0663 ± 0.0047 | 0.478 ± 0.14
V16C | 0.0634 | 0.0861 ± 0.0021 | 0.341 ± 0.081
R111D | 0.0585 ± 0.0013 | 0.06707 ± 0.00052 | 0.215 ± 0.0029
R111H | 0.05791 ± 0.00052 | 0.0652 ± 0.0026 | 0.2344 ± 0.0013
L103A | 0.0629 ± 0.0013 | 0.06945 ± 0.00026 | 0.918 ± 0.037
P15Q | 0.0654 ± 0.00078 | 0.0903 ± 0.0029 | 0.9395 ± 0.0039
P15M | 0.0625 ± 0.0018 | 0.0795 ± 0.001 | 0.637 ± 0.02
P61N G128I | 0.1886 ± 0.0018 | 0.682 ± 0.092 | 3.06 ± 0.22
R11A | 0.0548 ± 0.0023 | 0.0709 ± 0.0013 | 0.565 ± 0.025

Variant | sfGFP reporter fluorescence [1] | sfGFP reporter fluorescence ([2]; ligand: 1 µM Pb) | sfGFP reporter fluorescence ([2]; ligand: 30 µM Zn)
M60L L107C G128M | 4.479 ± 0.028 | 4.98 ± 0.62 | 5.22 ± 0.29
Q50A | 0.06615 ± 0.00026 | 0.0891 | 0.743 ± 0.019
E43W | 0.061 ± 0.0013 | 0.0995 ± 0.021 | 1.36 ± 0.2
E43G | 0.0583 ± 0.0021 | 0.0883 ± 0.001 | 0.924 ± 0.066
K104V L107C | 0.184 ± 0.0062 | 1.13 ± 0.23 | 2.31 ± 0.5
R33Q | 0.0623 ± 0.001 | 0.0612 ± 0.001 | 0.0711 ± 0.0026
T136A | 0.0601 ± 0.001 | 0.0696 ± 0.0031 | 0.668 ± 0.013
P30T | 0.06395 ± 0.00026 | 0.0887 | 0.917 ± 0.17
R20Y | 0.06249 ± 0.00026 | 0.06377 ± 0.00052 | 0.124 ± 0.0018
C123G | 0.0535 ± 0.001 | 0.0552 ± 0.0013 | 0.0502 ± 0.0015
C123W | 0.0575 ± 0.001 | 0.05919 ± 0.00026 | 0.0546 ± 0.0026
D64R | 0.064 ± 0.0039 | 0.112 ± 0.0049 | 1.4 ± 0.036
D64P | 0.0607 ± 0.00078 | 0.076 ± 0.00078 | 0.162 ± 0.0067
Q127A | 0.0724 ± 0.0018 | 0.0793 ± 0.0049 | 0.299 ± 0.047
P143H | 0.0585 ± 0.0018 | 0.0786 ± 0.0013 | 0.764 ± 0.072
P143F | 0.0568 ± 0.0015 | 0.0819 ± 0.0039 | 0.777 ± 0.052
P143G | 0.05351 ± 0.00052 | 0.06945 ± 0.00026 | 0.71 ± 0.092
P143C | 0.0574 ± 0.0013 | 0.07678 ± 0.00026 | 0.495 ± 0.12
E44A | 0.0612 ± 0.0015 | 0.0746 ± 0.0013 | 0.495 ± 0.044
L129D | 0.0588 ± 0.0013 | 0.05992 ± 0.00026 | 0.055 ± 0.001
